Laboratory results as given in US20130017578.
Where two headings read alike, the source gives them in different places.

Key:
[1] = target: Int-h/218 (parental lambda integrase mutant) Int-h/218 substitutions (not given) (Bacteriophage lambda) (UniProt P03700); conditions: attB x attP recombination, real-time PCR; reference activity
[2] = target: Int1 (Int-h/218 mutein) Int-h/218 substitutions (not given),I43A,H61R (Bacteriophage lambda) (UniProt P03700); test: cell_activity; conditions: attB x attP GFP reporter in HEK293, relative to Int-h/218
[3] = target: Int5 (Int-h/218 mutein) Int-h/218 substitutions (not given),I43A (Bacteriophage lambda) (UniProt P03700); test: cell_activity; conditions: attB x attP GFP reporter in HEK293, relative to Int-h/218
[4] = target: Int1 (Int-h/218 mutein) Int-h/218 substitutions (not given),I43A,H61R (Bacteriophage lambda) (UniProt P03700); conditions: attH x attPH, relative to Int-h/218 on attB x attP
[5] = target: Int5 (Int-h/218 mutein) Int-h/218 substitutions (not given),I43A (Bacteriophage lambda) (UniProt P03700); conditions: attH x attPH, relative to Int-h/218 on attB x attP

“CAGCTTTTTTATACTAAGTTG (double strand) [attP core]” was tested. Which binding signal [1] did it give?
Its binding signal is 100%.

What about the binding signal ([2]; attH x attP <1% activity) of the same sequence?
The binding signal was 50%.

And the binding signal ([3]; attH x attP <1% activity)?
The binding signal was 65%.

How did the binding signal [1] turn out when “CTGCTTTTTTATACTAACTTG (double strand) [attB core]” was run?
Its binding signal is 100%.

What about the binding signal [2] of the same sequence?
The binding signal was 50%.

And the binding signal [3]?
The binding signal was 65%.

How did the binding signal ([4]; 7-fold over Int-h/218 when translated in vitro (FIG. 4A)) turn out when “CTGCTTTCTTATACCAAGTGG (double strand) [attH]” was run?
The binding signal was 140%.

What about the binding signal ([5]; 9-fold over Int-h/218 on genomic attH (FIG. 4D)) of the same sequence?
The binding signal was 100%.

For “CAGCTTTCTTATACCAAGTTG (double strand) [attPH]”, which binding signal [4] is on record?
Its binding signal is 140%.

What about the binding signal [5] of the same sequence?
Its binding signal is 100%.
